Reference: PMC4587768

Key:
[1] = target: BG505 SOSIP-sCD4 complex (HIV-1 (strain BG505) | human) (UniProt Q2N0S6); assay: cryo-EM structure
[2] = target: BG505 SOSIP-sCD4 complex (HIV-1 (strain BG505) | human) (UniProt Q2N0S6); assay: negative-stain single-particle EM
[3] = target: BG505 SOSIP.664 soluble HIV-1 Env trimer (HIV-1 (strain BG505)) (UniProt Q2N0S6); assay: cryo-EM structure
[4] = target: BG505 SOSIP.664 soluble HIV-1 Env trimer (HIV-1 (strain BG505)) (UniProt Q2N0S6); assay: negative-stain single-particle EM

| Substance | stoichiometry N (Fabs per trimer) [1] | stoichiometry N (copies per trimer) [2] | stoichiometry N (sCD4 per trimer) [3] | stoichiometry N (copies per trimer) [4] |
| --- | --- | --- | --- | --- |
| 17b Fab (CD4-induced antibody) | 3 | 3 |  |  |
| sCD4 (CD4 domains 1 and 2) (domain or fragment) |  |  | 3 | 3 |
